Tests used:
[1] = test system: microbead-induced glaucoma mice; assay type: in vivo, mouse
Experimental: For whole mounted retina staining, mouse eyeballs were fixed in 4% paraformaldehyde for 3 hours at room temperature or overnight at 4° C. fridge after sacrificing mice with carbon dioxide (CO2). Then retinas were dissected out and incubated with blocking buffer (3% donkey serum+1% BSA+0.1% Triton+0.1% Tween in 1×PBS) for 1-3 h RT. Then retinas were subjected to immunolabeling by incubation with primary antibody (Table 1) overnight at 4° C. After washing three times by washing buffer (0.1% Triton-100 in PBS), retinas were incubated with secondary antibody at room temperature for 2 hrs. After rinsing retina three times in washing buffer for 5-10 min on shaker, mount slide with Fluoroshield Mounting Medium with DAPI (Abcam, Cat. No. ab104139). Visualize under microscope (Leica, SP8). Secondary antibody: Streptavidin, Alexa Fluor 546 conjugate (1:1000, S11225, Invitrogen), Streptavidin, Alexa Fluor 488 conjugate (1:1000, S11223, Invitrogen), Cy2 Donkey Anti-rabbit (1:1000, 711-225-152, Jackson ImmunoResearch), Cy3 Donkey Anti-mouse (1:1000, 715-165-150, Jackson ImmunoResearch), Cy3 Donkey Anti-goat (1:1000, 705-165-147, Jackson ImmunoResearch).
Total RNA was extracted from retinas of adult mice or purified retinal microglial cells using RNeasy Plus Mini kit (Qiagen, 74134) or RNeasy Micro kit (Qiagen, 74004) following manufacturer's instruction. The RNA was reversely transcribed using Takara PrimeScript™ RT Master Mix (Takara Bio, RR036A). A mixture of master mix contained cDNA, 2× Master Mix from KAPA SYBR Fast qPCR kit and […] of specific primers was used to detect specific mRNA expression level using the Mastercycler ep realplex real-time PCR system (Eppendorf, Westbury, NY). The temperature of initial denaturation was set at 95° C. for 2 mins followed by 45 cycles of 15 seconds denaturation (95° C.), 15 seconds annealing (59° C.), and 20 seconds extension (68° C.), and lastly holding at 4° C. Relative amount of specific mRNA transcript was presented in fold changes by normalization to the expression level of the housekeeping gene glyceraldehyde 3-phosphate dehydrogenase (GAPDH). Expression was analyzed using the 2−ΔΔCt method. All primers were synthesized by Integrated DNA Technologies (USA).
Elevated IOP was induced unilaterally in adult mice (10-12 weeks old) as described previously^21. Briefly, the mice were anesthetized by i.p. injection of ketamine (120 mg/kg)/xylazine (20 mg/kg) mixture using 25-gauge needle. The pupil was dilated with tropical application of 1% Tropicamide followed by proparacaine HCl (0.5%; Baush & Lomb Incorporated, Tampa, FL) to numb the eye. An entry on the corneal was generated by a 30-gauge needle, and a small air bubble was injected into anterior chamber via a glass micropipette which was connected with a Hamilton syringe. 2 μl solution of 10 μm microspheres (9.0×10^7 beads/ml sterile saline; Thermo Fisher Scientific, Cat. No. F8833) was injected into anterior chamber with care to avoid damaging the iris and the lens. The micropipette will be withdrawn slowly after delivery of microbeads. Antibiotic ointment will be applied topically on the cornea after the injection, and then leave the operated mice to recover on a warm pad and monitored every 15 minutes until awake and fully sternal.
Mice were anesthetized by isoflurane inhalation (2-4%; Webster Veterinary, Sterling, MA) delivered in 100% Oxygen with a precision Vaporizer. The IOP was measured by TonoLab tonometer (Colonial Medical Supply) before and post-MB injection. An average of 6 IOP readings will be taken as one reading. At least […] readings of IOP level will be taken per mouse eye, and the mean of 3 readings represents the IOP level of a mouse eye. Baseline level of IOP in anesthetized mice was measured before induction of elevated IOP. Then the IOP was measured twice a week after microbeads injection induced IOP elevation. The IOP was measured at the same time in the morning to minimize the circadian variation. […]

[2] = test system: Igf-1r conditional knock out on microglia mice; test: Microbead-induced glaucoma in mice with Igf-1r specific knock out on microglia; assay type: in vivo, mouse
Experimental: Adult (10-12 weeks old) male and female C57BL/6J (B6) (The Jackson Laboratory, 000664), Cx3cr1^GFP (The Jackson Laboratory, 005582), DBA/2J mice (The Jackson Laboratory, 000671) Igf1r^(lax) inducible knockout mice (The Jackson Laboratory, 012251) as well as Cx3cr1^tm2.1(cre/ERT2) mice were obtained from the Jackson Laboratory. Igf1r^(lax) mice were crossed with Cx3cr1^tm2.1(cre/ERT2) mice to generated Igf-1r specific knock out on microglia after 3 consecutive days injection of 100 mg/kg tamoxifen to mice. IGFBPL1 deficiency mice at a C57BL/6J genetic background (Knockout Mouse Project Repository, University of California at Davis) were used in following experiments. Mice of both genders were randomized into control and experimental groups. All experimental procedures and use of animals were approved and monitored by the Institute's Animal Care Committee and conform to the standards of the National Institute of Health and the Association for Research in Vision and Ophthalmology.
Elevated IOP was induced unilaterally in adult mice (10-12 weeks old) as described previously^21. […] Antibiotic ointment will be applied topically on the cornea after the injection, and then leave the operated mice to recover on a warm pad and monitored every 15 minutes until awake and fully sternal. […]

[3] = 14 days post glaucoma induction
[4] = intravitreal at day 3, 10 and 17 post IOP elevation

B1: IGFBPL1: insulin-like growth factor binding protein like protein 1; recombinant protein (R&D system, 4130-BL) (protein)
chain: LGLRDAGRRHPECSPCQQDRCPAPSPCPAPWISARDECGCCARCLGAEGASCGGPVGSRCGPGLVCASRASGTAPEGTGLCVCAQRGAVCGSDGRSYSSICALRLRARHAPRAHHGHLHKARDGPCEFAPVVLMPPRDIHNVTGTQVFLSCEVKAVPTPVITWKKVKHSPEGTEGLEELPGDHVNIAVQVRGGPSDHETTSWILINPLRKEDEGVYHCHAANAIGEAQSHGTVTVLDLNRYKSLYSSVPGDLL
In the case of B1, the “Contrast sensitivity (CS) and visual acuity (VA) by optomotor response” value ([1]; 4- and 8-weeks post glaucoma induction) is reported as “restored CS and VA”, the “Expression of pro-inflammatory cytokines (C1q, Tnfα, Il-1β, Il-1α) in glaucoma retina” value [1, 3] is reported as “remarkably reduced” and the “Level of activated microglia markers (Iba-1, Ym-1, Nox-2, Cd163) in retina by qPCR” value [1, 3] is reported as “dramatically down-regulate”. For the same molecule, the “Reactive astrocyte number and GFAP level in retina” value ([1]; day 14 post glaucoma induction) was “significantly restored”, the “RGC quantification compared with baseline” value [1, 4] was “no significant difference with baseline” and the “RGCs loss and dysfunction from glaucomatous damages” value [1, 4] was “significantly prevented RGCs loss and dysfunction”. For the same molecule, the “IBA-1+ microglia activation (morphology, cell density) in retina” value ([1]; intravitreal at day 3 and 10, 2 wks post glaucoma-induced injury) was “reverse activated microglia into resting state”, the “pSTR amplitude (ERG) compared with baseline” value ([1]; mouse, in vivo) was “no significant difference with baseline” and the “pSTR amplitude and RGCs (neuroprotective effect)” value ([2]; IGFBPL1 at day 3, 10 and 17 post microbeads-induced glaucoma, IGF-1R knocked out on microglia) was “neuroprotective effects diminished”. For the same molecule, the “Contrast sensitivity (CS) and visual acuity (VA)” value ([2]; Igf-1r−/− mice with MB induced glaucoma) was “very limited protective capacity”.

— patent US20250051458A1, “Methods for Treating Neurodegeneration Targeting IGF1/IGF1R” (The Schepens Eye Research Institute, Inc., priority 2021, published 2025)
